Reference: patent US5455181A, “Thrombin-inhibitory proteins from terrestrial leeches” (BASF Aktiengesellschaft, priority 1991, dated 1995)
No end group written: not given here.

Biological target: T1, Thrombin (Homo sapiens, UniProt P00734)
T1 construct: purchased Boehringer Mannheim
Test: Determination of the inhibition of thrombin (Chromozym TH chromogenic substrate, absorption at 405 nm)
Format: biochemical
Settings: periplasmic expression in E. coli DH 5α, fusion protein with maltose binding protein
Experimental: The purification of the proteins can be followed by a thrombin activity assay. It is expedient to use for this an optical assay in which a chromogenic substrate, for example Chromozym TH, is converted by thrombin. The fractions containing the novel proteins can be identified on addition to this optical assay by their thrombin-inhibiting action.
Thrombin (Boehringer Mannheim) was dissolved to a final concentration of 25 mU/ml in phosphate-buffered saline (PBS) ([…] NaCl; 0.2 g/1 […]; 0.144 g/l sodium phosphate; 0.2 g/l potassium phosphate, pH 7.5).
Chromozym TH (Boehringer Mannheim) was dissolved in 20 ml of H2 O/vial.
50 μl of thrombin solution and 100 μl of Chromozym plus 25 μl of sample or buffer were placed in the wells of a microtiter plate. The absorption at 405 nm was measured immediately thereafter at time 0 and after 30 minutes at 37° C.
The thrombin activity leads to liberation from the chromogenic substrate of a dye which absorbs at 405 nm. The inhibition of thrombin by a thrombin inhibitor is evident from a smaller increase in absorption at 405 nm and was quantified using a calibration plot.

## thrombin inhibitor: recombinant protein, SEQ ID NO: 23 position 1 to 57, expressed in E. coli as fusion protein with maltose binding protein (MFSTKMFVVFVAVCICVTQSIRFGMGKVPCPDGEVGYTCDCGEKICLYGQSCNDGQC; cysteine pairing not given here; also: expressed as fusion protein with maltose binding protein)
  concentration of the thrombin inhibitor: 1250 units per liter of culture medium
